In the supplement of paper PMC10724198:
± gives the standard deviation of the averaged measurements.

Tested on: Saccharomyces cerevisiae
Test: protein stability index of tFT-peptide fusion (C-terminal peptide) (PSI (0-1 scale)); higher = more stable (slower turnover)
Conditions: genetic background: wild type; temperature: 30 C
Method: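 Multiplexed protein stability (MPS) profiling in S. cerevisiae. Random 12-aa peptides (tFT-X12 library) are fused to the C-terminus of a sfGFP-mCherry tandem fluorescent timer, after mCherry and a GGGS linker. Cells are FACS-sorted into 8 mCherry/sfGFP bins and deep-sequenced. The protein stability index (PSI) is the read-weighted bin average, scaled from 0 (unstable) to 1 (stable). Only peptides with >10 reads are reported; cells were grown at 30 °C in SC-His with glucose.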
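Note: PSI is a weighted mean of sequencing reads over stability bins, variants kept only with over 10 reads, mCherry proximal and sfGFP distal, peptide attached via GGGS linker.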

| Sequence | protein stability index |
| --- | --- |
| GTTDVHLLLECE | 0.729 ± 0.011 |
| LVVSPPPLPFPS | 0.689 ± 0.013 |
| VVRGKRRVRWLR | 0.625 ± 0.049 |
| ARRTEEVVLRSL | 0.693 ± 0.059 |
| DGAVRRGVGGLG | 0.699 ± 0.031 |
| LSALPPRPFSYR | 0.7053 ± 0.004 |
| FSRSDREIFPRN | 0.585 ± 0.07 |
| TLGGEITYKVKT | 0.684 ± 0.034 |
| ECGLGGWGGLGV | 0.657 ± 0.078 |
| ALASPGLLVFTR | 0.673 ± 0.026 |
| RRVPVVSRSGGG | 0.697 ± 0.043 |
| SGRSRVAGVERR | 0.708 ± 0.062 |
| PPLSPRLLWSPV | 0.711 ± 0.0044 |
| LVRAWRGGVGGV | 0.669 ± 0.0098 |
| NAHHSASPSHCF | 0.6471 ± 0.0059 |
| PSSRPPPPPPPP | 0.698 ± 0.037 |
| RDNNSNEMGQAI | 0.723 ± 0.016 |
| YADAGRVSLWIA | 0.5512 ± 0.0054 |
| GTDVGKVSASQG | 0.638 ± 0.037 |
| PGAFDLPHSQAV | 0.552 ± 0.059 |
| RPRVCFPHIAGT | 0.777 ± 0.11 |
| ISPSASTSRPFQ | 0.697 ± 0.11 |
| SVVGGVVVELEG | 0.65 ± 0.0096 |
| FGRFCYELLCGT | 0.541 ± 0.056 |
| SGGVWWGRGRVS | 0.727 ± 0.058 |

| Sequence | protein stability index |
| --- | --- |
| SVPLTLLPPLFP | 0.694 ± 0.016 |
| PELCLSSPSSLS | 0.686 ± 0.018 |
| CQILLSYSGYPH | 0.589 ± 0.021 |
| RLKTNKVIIKIK | 0.6665 ± 0.0032 |
| VIGEWWPVSGQH | 0.718 ± 0.014 |
| PPSLCPPPSLLF | 0.733 ± 0.013 |
| TLSPGYTFPLSL | 0.743 ± 0.023 |
| GGASRLARMGWW | 0.642 ± 0.034 |
| LRKNRKHINKKI | 0.626 ± 0.034 |
| NKKIEDYDKNKN | 0.6835 ± 0.00098 |
| CSAHVPAPHSYR | 0.704 ± 0.061 |
| CDEVEGVLLVRG | 0.707 ± 0.047 |
| KKKKKKNTHNTK | 0.646 ± 0.07 |
| GVGGGGACRPVG | 0.709 ± 0.15 |
| SNRSVININIRI | 0.616 ± 0.058 |
| RIGEHGWLTGYI | 0.736 ± 0.012 |
| FFPQPTPVSISR | 0.8264 ± 0.0039 |
| VPEVRRTDGRVR | 0.74 ± 0.014 |
| VAVGAGAGAMGL | 0.656 ± 0.0094 |
| PPAPSPRPPPPP | 0.708 ± 0.067 |
| PPPPPPPRPSFP | 0.696 ± 0.041 |
| STCPPIFFVSSW | 0.7248 ± 0.0063 |
| ARPLHSIGPAII | 0.658 ± 0.0089 |
| FFLRSPLFPCSH | 0.72173 ± 0.00052 |
| TRALPIVLAVGP | 0.59 ± 0.026 |

| Sequence | protein stability index |
| --- | --- |
| LLLPIIPRKLDL | 0.673 ± 0.022 |
| RFKLEKIKHKKK | 0.755 ± 0.054 |
| RREVKKNGNKRN | 0.713 ± 0.073 |
| SCTGGLVSVRGV | 0.666 ± 0.023 |
| EECSYERRRTRE | 0.8059 ± 0.0017 |
| YVSSYILPVTRV | 0.603 ± 0.045 |
| WRTPVCSPFLLG | 0.691 ± 0.0053 |
| STLSSPSRRLLP | 0.677 ± 0.03 |
| PLPSPPVPPPPP | 0.6796 ± 0.0043 |
| CYPPTRYILGYF | 0.72 ± 0.06 |
| LLSRQEWMTGRS | 0.673 ± 0.031 |
| CTCGDFHRAWVS | 0.667 ± 0.01 |
| DTLPSYPVHCRP | 0.71 ± 0.014 |
| RFTPLSFCTDRV | 0.658 ± 0.025 |
| VCVACLRYPTFS | 0.6767 ± 0.0031 |
| VGTPPSEVGVLA | 0.628 ± 0.035 |
| PPTSPPLAPPPL | 0.643 ± 0.062 |
| LFPPRVSLPSHT | 0.663 ± 0.13 |
| MVTWSDRVIKSW | 0.733 ± 0.023 |
| DSGYRQWGGTGR | 0.714 ± 0.12 |
| APPPPPALPEYQ | 0.685 ± 0.047 |
| ALRSGGAARVRL | 0.7776 ± 0.0071 |
| GPSLLAAQAHTN | 0.704 ± 0.038 |
| PPPPPPNAPPSS | 0.647 ± 0.03 |
| PGCSCPSTRRTT | 0.655 ± 0.077 |

| Sequence | protein stability index |
| --- | --- |
| PPLPSLLGLLFP | 0.6773 ± 0.0044 |
| TVLRPVLCCFFV | 0.698 ± 0.015 |
| PPYAPSPSPPSH | 0.6936 ± 0.0029 |
| VRINNIGKRVNR | 0.706 ± 0.025 |
| EKKKEKKGKKRE | 0.683 ± 0.029 |
| LPPPIPPPLSLA | 0.703 ± 0.013 |
| RISPRVSARLCI | 0.616 ± 0.007 |
| YPPPPLPPPRPP | 0.555 ± 0.015 |
| GGAVSRVGEWGR | 0.7881 ± 0.0073 |
| ASTSPSASSSPP | 0.727 ± 0.024 |
| RGPRGGFHFFRA | 0.6657 ± 0.003 |
| VPLPGAAGATLL | 0.773 ± 0.091 |
| ISVDNTKFLFRS | 0.687 ± 0.023 |
| LALVGGACVGRV | 0.65 ± 0.044 |
| EIVTTEINKKTN | 0.7115 ± 0.004 |
| TPSDHRRLRGSN | 0.689 ± 0.045 |
| ADQAPVLTVWLP | 0.669 ± 0.023 |
| VSDMILSATFCM | 0.643 ± 0.042 |
| TKFKPKILEKCT | 0.686 ± 0.021 |
| EWGRSGVRCRLG | 0.571 ± 0.052 |
| RTRSVPWEPRYF | 0.687 ± 0.03 |
| YVGLSSRSFLSF | 0.687 ± 0.033 |
| NIGVKNVVLVEG | 0.537 ± 0.043 |
| RGWVEWGVRASE | 0.749 ± 0.06 |
| TYGPSLPVHAVT | 0.686 ± 0.012 |

| Sequence | protein stability index |
| --- | --- |
| SSVQVSMGTAAG | 0.681 ± 0.036 |
| PFLFPLLSPFSV | 0.681 ± 0.019 |
| SPRFLLNCWGRL | 0.821 ± 0.027 |
| RSSIGNLCCRLL | 0.6884 ± 0.0034 |
| GLLARESLSFRH | 0.675 ± 0.026 |
| LLPPLPLSPSAP | 0.685 ± 0.096 |
| SSVNYPSFPPLA | 0.706 ± 0.03 |
| DPVGRSSHQFFL | 0.633 ± 0.026 |
| LLSLATPHPSAL | 0.714 ± 0.045 |
| HPSREPLLLCYH | 0.618 ± 0.067 |
| PPAPRPSTRHTP | 0.74 ± 0.013 |
| LPIKRLWKGLHG | 0.652 ± 0.1 |
| TTSPRNMIIYYR | 0.627 ± 0.037 |
| RALGKRFIQARD | 0.727 ± 0.022 |
| PSRVPSSVPLAP | 0.6864 ± 0.0061 |
| VGILHCELVDVS | 0.735 ± 0.17 |
| DGCVTVDIRRGV | 0.733 ± 0.016 |
| VTGDRGGVRGGE | 0.685 ± 0.012 |
| FVKQSHYCLFHL | 0.634 ± 0.011 |
| VKSQRISVMIKK | 0.689 ± 0.022 |
| PRLPLPSRPSPR | 0.655 ± 0.064 |
| PPPRPRYLHPPS | 0.719 ± 0.035 |
| RLNNRVMGHIEA | 0.6673 ± 0.0062 |
| FCSRVGFVFLRL | 0.489 ± 0.024 |
| SGGGGVLGWRGG | 0.682 ± 0.022 |

| Sequence | protein stability index |
| --- | --- |
| QVPDPSVNQPPS | 0.699 ± 0.028 |
| RESPYSRSRCLL | 0.733 ± 0.17 |
| AKLQQEIVWALD | 0.779 ± 0.048 |
| RLPPPPPPPSTP | 0.725 ± 0.053 |
| RSLDEPCGFFRP | 0.637 ± 0.023 |
| ARAAHLASRGLP | 0.689 ± 0.037 |
| PPLLPPPLTPPD | 0.628 ± 0.051 |
| WGPGGVAWGAWW | 0.7837 ± 0.0022 |
| HPPPPSPPSPLP | 0.724 ± 0.036 |
| FPFVVVISSSGE | 0.693 ± 0.23 |
| VSGSVVLHTVIP | 0.658 ± 0.017 |
| VGERVSRRIQTR | 0.699 ± 0.052 |
| VRATSMWRSRGR | 0.688 ± 0.053 |
| GGEGWGAFWGGE | 0.713 ± 0.05 |
| PPPGPPPPPPYP | 0.656 ± 0.12 |
| GAEKEPEPRRLA | 0.699 ± 0.06 |
| EARLGVGRCGTG | 0.67 ± 0.0098 |
| PPFSLVTGLPCP | 0.71 ± 0.048 |
| PSAPSLPPFFPP | 0.644 ± 0.04 |
| KKHKKEDNKEKK | 0.708 ± 0.051 |
| QKDTGKETTYRA | 0.681 ± 0.037 |
